Target: T1, FhuCB with FhuB S57A (Escherichia coli, UniProt P07821 1-265; P06972 1-660, S57A, red-tris-NTA 2nd generation dye on the His-tag)
T1 construct: FhuC, ATPase subunit, Escherichia coli; as in Dm2; FhuB, membrane subunit, Escherichia coli, 660 residues; Mutant made on the FhuCB-pET15b construct by direct mutagenesis; source: E. coli BL21(DE3) C43, purified (TALON, Superose 6 gel filtration) in LMNG; not shown: His-tag, N-terminal, kept; copies: 2 + 1
T1 sequence (looked up) 1: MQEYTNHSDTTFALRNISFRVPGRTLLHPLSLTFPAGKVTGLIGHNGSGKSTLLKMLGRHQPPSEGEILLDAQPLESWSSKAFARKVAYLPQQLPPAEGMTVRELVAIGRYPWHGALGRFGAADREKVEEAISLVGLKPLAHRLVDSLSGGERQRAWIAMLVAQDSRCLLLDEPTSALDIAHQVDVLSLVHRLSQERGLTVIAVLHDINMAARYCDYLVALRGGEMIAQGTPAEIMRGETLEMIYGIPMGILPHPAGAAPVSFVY
T1 sequence (looked up) 2: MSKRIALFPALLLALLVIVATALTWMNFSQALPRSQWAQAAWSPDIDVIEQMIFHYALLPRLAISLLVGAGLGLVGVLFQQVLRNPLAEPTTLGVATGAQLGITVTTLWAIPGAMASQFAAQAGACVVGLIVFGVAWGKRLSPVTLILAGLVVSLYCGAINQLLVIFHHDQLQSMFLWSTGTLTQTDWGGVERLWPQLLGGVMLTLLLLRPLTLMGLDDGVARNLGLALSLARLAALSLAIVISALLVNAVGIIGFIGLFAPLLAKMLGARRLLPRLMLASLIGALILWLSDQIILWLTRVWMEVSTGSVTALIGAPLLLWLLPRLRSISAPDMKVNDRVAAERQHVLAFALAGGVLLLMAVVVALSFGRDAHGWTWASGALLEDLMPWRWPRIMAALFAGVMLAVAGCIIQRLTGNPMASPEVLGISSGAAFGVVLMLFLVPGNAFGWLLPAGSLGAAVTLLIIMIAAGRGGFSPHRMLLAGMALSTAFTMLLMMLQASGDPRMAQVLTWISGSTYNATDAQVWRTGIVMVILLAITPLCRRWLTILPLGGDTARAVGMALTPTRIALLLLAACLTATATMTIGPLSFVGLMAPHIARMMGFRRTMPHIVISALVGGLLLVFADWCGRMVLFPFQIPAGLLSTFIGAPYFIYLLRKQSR
Assay: MST; 40 nM FhuCB (wild type or FhuB mutant) in detergent, His-tag labelled with red-tris-NTA 2nd generation dye; serial dilution of 1.6 μM FhuD with substrate ferrichrome; with ATP-Mg; Monolith NT.115pico, 20% LED power, medium MST power
Details: both partners purified

- Kd: 88.4 nM
B1: FhuD (natural protein, Escherichia coli)
chain: AAIDPNRIVALEWLPVELLLALGIVPYGVADTINYRLWVSEPPLPDSVIDVGLRTEPNLELLTEMKPSFMVWSAGYGPSPEMLARIAPGRGFNFSDGKQPLAMARKSLTEMADLLNLQSAAETHLAQYEDFIRSMKPRFVKRGARPLLLTTLIDPRHMLVFGPNSLFQEILDEYGIPNAWQGETNFWGSTAVSIDRLAAYKDVDVLCFDHDNSKDMDALMATPLWQAMPFVRAGRFQRVPAVWFYGATLSAMHFVRVLDNAIGGKA
notes: In 'FhuD-ferrichrome' the protein was loaded with the small molecule ferrichrome; also called FhuD-ferrichrome (when loaded with ferrichrome)

Source: paper PMC8660799, “Cryo-EM reveals unique structural features of the FhuCDB Escherichia coli ferrichrome importer” (Communications Biology, 2021)
